Test results published in the RNAGym collection of RNA variant scans (doi:10.1073/pnas.2313332121).

B1: TPR t1 (parent)
chain: GACCAAUCUGCCCUCAGAGCUCGAGAACAUCUUCGGAUGCAGAGGAGGCAGGCUUCGGUGGCGCGAUAGCGCCAACGUCCUCAACCUCCAAUGCAUCCCACCACAUGAUGAUGCCUGAAGAGCCUUGGUUUUUUG

Variants of: B1
Test: polymerase ribozyme fitness, log enrichment relative to wild type (log ratio); higher = more active; in vitro selection for triplet polymerase activity
Procedure, shortened: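 A heterodimeric triplet polymerase ribozyme had each of its subunits mutagenized by PCR into a library, which was transcribed. One round of in vitro selection, done in triplicate, annealed each library with a biotinylated primer, its partner subunit and triplets, then incubated it frozen at −7 °C before gel excision of extended constructs, streptavidin-bead capture and RT-PCR. Fitness is the logarithm of genotype enrichment relative to wild-type enrichment, based on Illumina sequencing of inputs and outputs and inverse-variance-weighted replicate averages. A base-2 logarithm is used, and genotypes were kept only with ≥10 input reads and ≥1 read per output.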

Variant | polymerase ribozyme fitness (log ratio)
A29G A37U C89U C94U C123A U126A | -3.13
A29C G60U U87C | -2.47
A29G C72U G135U | -1.91
A29U G47A C62U C82U G117C | -5.79
A29G C94A | -2.09
U30A A121C | -3.22
A29U G69C U81G U87G | -3.43
A29G U131C | -1.02
C31G G69U A91G G120A U129A | -6.61
A29U C72G C104U G120C | -0.531
U30A A95G A121U | -3.78
A29U G52C C73G U132C G135U | -3.19
A29C G45C G52A C85U | -5.05
A29U G36U U112C | -1.39
A29G C97A U112C | -4.92
U30A G52C | -5.66
A29G G51U C62U C82G | -4.8
A29U G113C | -2.87
C31G C53G A90U G113A | -6.88
A29U G60C | -2.06
A29U C76A | -1.91

Variant | polymerase ribozyme fitness (log ratio)
A29G G117A | -2.22
A29G G117C | -3.99
A29C A75G C124G U129C | -1.16
A29G U116A | -3.67
A29G A43U G61U U116C G117U | -0.773
A29U U112A U131A | -1.03
A29G U81C A100U | -3.08
A29C C31G G61U C101U A121U C124A | -5.89
A29G U109G C114G | -6.5
A29U C40U C72G A84C A100C U106A A119U | -3.21
U30C C56G G60U A84C | -3.79
A29G G120A | -1.03
A29C U130C | -2.27
C31A A46U C72A | -5.82
C31A U96G A121G | -4.67
A29G C40U G63A C104U G122A | -2.07
A29C C79U | -3.18
A29U U112A U126G | -2.25
A29U C56U A84G C97U | -3.9
U30G G69C A108C | -0.59
A29G G61A C99A U112C C124A G135C | -5.36

Variant | polymerase ribozyme fitness (log ratio)
C31G G42U G113U | -5.66
A29U C62A U112C G127C | -3.28
U30C U87A | -2.98
A29G A37C G71U G117U | -4.47
A29U U54A G71C | -1.61
A29U G44U A111G C124G | -3.58
A29C G51A | -6.28
A29G G39U C85U C89U | -4.23
C31A G61A C94U C97U C123U | -6.35
A29G G71U | -1.72
A29G A43C G122A | -4.45
A29G G61A | -0.852
A29C C40U A41U G58C G71U C104U U129A | -6.05
A29U C34U | -4.41
A29G G52U C70U U125A | -2.42
U30C G36C C70G U78C A84C U112G | -6.17
A29G A50C | -1.66
A29G C31A C56G C99A A121G U129C | -7.31
C31A U54A C89A A121U | -7.04
A29U G45U C73U A95G U131A | -4.04
A29U U81A C82A U87G U112A | -1.91

Variant | polymerase ribozyme fitness (log ratio)
A29C C49U | -2.86
A29U C56U G120C G127A | -2.48
A29U G44A C72U G110A U125A | -5.47
A29G G60C U106A U109C G117A G127A | -5.43
C31G G52U G77A G117U | -6.19
A29U G61A G127C | -3.2
A29G C53G C62U U106A G117C | -4.22
A29G G60A U109A U112A G122A U130G | -6.7
U30C A43U C56U G58U U112G | -6.19
A29G G47A G51U C123G U129A U133G | -5.68
A29U G69U U116C G117C | -1.83
A29U C56U C123U | -0.0509
C31A C70A A83C G113U A118G | -6.98
A29U A50G U81C C114U | -1.72
U30C C49G G63U C70U A84C C114U | -6.54
U30C C70U G113C | -3.79
A29U G44A G110A U125A | -3.17
A29G G42A G69C | -4.23
A29U C56A | -2.25
A29U C56U | -1.54
A29U G44U | -3.06
